From paper PMC9844003 (2023)
Where a chain is given by its changes, count along the chain named.

B1: BC31M5 (hIgG1 form) (antibody, V domains shown)
VH: QVQLVQSGAEVKKPGASVKVSCKASGYTFTSYGISWVRQAPGQGLEWMGWISAYNGNTNYAQKLQGRVTMTTDTSTSTAYMELRSLRSDDTAVYYCARGTVYFDYWGQGTLVTVSS
VL: EIVLTQSPATLSLSPGERATLSCRASQSLSRNHLAWYQQKPGQPPRLLIHWASTRESGVPDRFSGSGSGTDFTLTISSLQAEDVAVYYCQQHTQNTWTFGQGTKVEIK
B2: BC31M4 (hIgG1 form) (antibody, V domains shown)
VH: B1 VH with T100A
VL: B1 VL
B3: BC27 (hIgG1 form) (antibody, V domains shown)
VH: B1 VH with T100K
VL: B1 VL with H92Y, T93Y, Q94T, N95A, T96S

Assays:
[1] = target: T1, extracellular domain of CD47 fused to a His(×6)-Avi-tag (human); experiment: SPR; pH 6.8
T1 sequence (chain, as listed by the source): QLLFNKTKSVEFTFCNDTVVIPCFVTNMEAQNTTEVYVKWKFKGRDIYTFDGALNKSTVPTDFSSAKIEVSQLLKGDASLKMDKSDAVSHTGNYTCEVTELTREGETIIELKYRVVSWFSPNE

[2] = target: T1, extracellular domain of CD47 fused to a …; experiment: SPR; pH 7.4
[3] = target: T2, full-length human CD47 stably expressed on CHO cells (CHO-hCD47) (human, UniProt Q08722 19-323); experiment: FACS; pH 6.8
T2 sequence (Q08722 19-323): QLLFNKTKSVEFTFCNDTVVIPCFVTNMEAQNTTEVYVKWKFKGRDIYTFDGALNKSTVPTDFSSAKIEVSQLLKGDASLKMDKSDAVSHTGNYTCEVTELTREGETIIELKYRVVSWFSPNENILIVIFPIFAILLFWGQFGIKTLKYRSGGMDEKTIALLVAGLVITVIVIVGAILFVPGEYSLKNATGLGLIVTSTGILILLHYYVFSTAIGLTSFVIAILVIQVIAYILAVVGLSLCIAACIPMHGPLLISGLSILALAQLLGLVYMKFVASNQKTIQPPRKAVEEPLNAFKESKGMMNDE

[4] = target: T2, full-length human CD47 stably expressed …; experiment: FACS; pH 7.4
[5] = target: T1, extracellular domain of CD47 fused to a …; experiment: ELISA; pH 6.2
[6] = target: T1, extracellular domain of CD47 fused to a …; experiment: ELISA; pH 6.4
[7] = target: T1, extracellular domain of CD47 fused to a …; experiment: ELISA; pH 6.6
[8] = target: T1, extracellular domain of CD47 fused to a …; experiment: ELISA; pH 6.8
[9] = target: T1, extracellular domain of CD47 fused to a …; experiment: ELISA; pH 7.0
[10] = target: T1, extracellular domain of CD47 fused to a …; experiment: ELISA; pH 7.2
[11] = target: T1, extracellular domain of CD47 fused to a …; experiment: ELISA; pH 7.4
[12] = target: T1, extracellular domain of CD47 fused to a …; experiment: ELISA; pH 7.6
[13] = target: T3, cell-surface CD47 on Raji, Jurkat and MDA-231 tumor cells (human (endogenous in Raji, Jurkat, …, UniProt Q08722 19-323)); experiment: FACS; Raji, pH 6.8
T3 sequence (Q08722 19-323): as above

[14] = target: T3, cell-surface CD47 on Raji, Jurkat and …; experiment: FACS; Raji, pH 7.4
[15] = target: T3, cell-surface CD47 on Raji, Jurkat and …; experiment: FACS; Jurkat, pH 6.8
[16] = target: T3, cell-surface CD47 on Raji, Jurkat and …; experiment: FACS; Jurkat, pH 7.4
[17] = target: T3, cell-surface CD47 on Raji, Jurkat and …; experiment: FACS; MDA-231, pH 6.8
[18] = target: T3, cell-surface CD47 on Raji, Jurkat and …; experiment: FACS; MDA-231, pH 7.4
[19] = target: T2, full-length human CD47 stably expressed …; experiment: FACS; pH 6.8, competition with bio-SIRPα-Fc
[20] = target: T2, full-length human CD47 stably expressed …; experiment: FACS; pH 7.4, competition with bio-SIRPα-Fc
[21] = target: T3, cell-surface CD47 on Raji, Jurkat and …; experiment: FACS; Raji, pH 6.8, competition with bio-SIRPα-Fc
[22] = target: T3, cell-surface CD47 on Raji, Jurkat and …; experiment: FACS; Raji, pH 7.4, competition with bio-SIRPα-Fc
[23] = target: T3, cell-surface CD47 on Raji, Jurkat and …; experiment: FACS; Jurkat, pH 6.8, competition with bio-SIRPα-Fc
[24] = target: T3, cell-surface CD47 on Raji, Jurkat and …; experiment: FACS; Jurkat, pH 7.4, competition with bio-SIRPα-Fc
[25] = target: T3, cell-surface CD47 on Raji, Jurkat and …; experiment: FACS; MDA-231, pH 6.8, competition with bio-SIRPα-Fc
[26] = target: T3, cell-surface CD47 on Raji, Jurkat and …; experiment: FACS; MDA-231, pH 7.4, competition with bio-SIRPα-Fc

Binder	Kd [2]	EC50 [3]	EC50 [4]	EC50 [9]	EC50 [10]	EC50 [11]	EC50 [13]	EC50 [14]	EC50 [15]	EC50 [16]	EC50 [17]	EC50 [18]	IC50 [19]	IC50 [20]	IC50 [21]	IC50 [23]	IC50 [25]	IC50 [26]	further results
B1	6.9 nM	4.8 nM	4.1 nM	0.04 nM	0.04 nM	0.04 nM	0.7 nM	4 nM	1.5 nM	2 nM	1.2 nM	3.3 nM	4.1 nM	5.9 nM	1.2 nM	4.2 nM	1.7 nM	9.3 nM	Kd [1]: 3.6 nM; EC50 [5]: 0.06 nM; EC50 [6]: 0.05 nM; EC50 [7]: 0.05 nM; EC50 [8]: 0.04 nM; EC50 [12]: 0.06 nM; IC50 [22]: 6.7 nM; IC50 [24]: 17.2 nM
B2	457 nM	4.8 nM	~21.4 nM	0.04 nM	0.11 nM	0.51 nM	6.8 nM	~92 nM	1.54 nM	~131 nM	8.5 nM	~231 nM	5.4 nM	~30.4 nM	19.9 nM	35 nM	22.7 nM	~507 nM	–
B3	1170 nM	–	–	–	–	–	–	–	–	–	–	–	–	–	–	–	–	–	–
